Patent US8247535B2, “Directed evolution of GRG31 EPSP synthase enzyme” (Athenix Corp., priority 2008, dated 2012)

Legend:
GRG31 EPSP synthase [1] = type: biochemical
Procedure: The thermostability of several variants of GRG31 was analyzed by measuring survival of activity at 37° C.

BL21*DE3 cells = experiment: Glyphosate growth screen on agar plates; type: cell-based, E. coli; conditions: 1×M63 minimal medium; 0.05 mM IPTG; expression construct pAX1945
From the text: A glyphosate growth screen was developed. […] Library 1 was cloned into pAX1945 between the MfeI and AlwN1 restriction sites.
Clone pAX3625 contains a grg31 variant having an in-frame stop codon that disrupts the GRG31 open reading frame.

GRG31 EPSP synthase [2] = experiment: Kinetic analysis of GRG31 variants (Ki for glyphosate, Km for PEP, Vmax); type: biochemical; design: Vmax: unit not given here

B1: GRG31: native (wild-type) GRG31 EPSP synthase, SEQ ID NO:2 (protein)
chain: MNQQVITLTHPSKKIQGTVQLTGSKSESNRALIIQSLSKGQVEIANLSEAADTVTLNRVLQIASDPKPGFNTIDIGPAGTAMRFLTAYLNLVKGNFILTGTERMQQRPIGILVDAMKEIGADIHYDKKVGYPPLKIEGGLFQEKDRVKIKGNISSQYISALLLIAPALKKGLTLEIEGELTSRPYVSMTLDMLKSVGIQHEWKNNAIKIAPQAFEKQTIYVEPDWSAASYWYAIAALADANASIVLPGLRKNSLQGDIAIISIMEHFGVQSSFESDGLHLNKKVIGSDVSLFNFKECPDLAQTVVVVAAALKRDVSFTGLETLKIKETDRIAALQKEIAKFGAELIEDGDTYHLKTAQVYQPEEVTFDTYEDHRMAMAFAPLALVFDQIKIAEPQVVEKSYPDFWNHLQAQAFVIE
B1 was tested, and the “t1/2 at 37° C.” value (GRG31 EPSP synthase [1]) was 2.7 h, the “glyphosate concentration of agar plates on which cells grow” value (BL21*DE3 cells) was “up to 50 mM” and the Ki (GRG31 EPSP synthase [2]; Ki for glyphosate, calculated from plot of Km(app) vs. glyphosate concentration) was 73 µM. For the same molecule, the Km (GRG31 EPSP synthase [2]; Km for PEP) was 23 µM and the Vmax (GRG31 EPSP synthase [2]; unit not given) was 29.3.
